Source: paper doi:10.1101/480269v2

Tests used:
Experiment in all cases: purified protein
Conditions in all cases: Mg2+ as the activating cation
[1] = substrate: NC(=O)c1ccc[n+]([C@@H]2O[C@H](COP(=O)(O)OP(=O)(O)OC[C@H]3O[C@@H](n4cnc5c(N)ncnc54)[C@H](O)[C@@H]3O)[C@@H](O)[C@H]2O)c1
[2] = substrate: NC(=O)C1=CN([C@@H]2O[C@H](COP(=O)(O)OP(=O)(O)OC[C@H]3O[C@@H](n4cnc5c(N)ncnc54)[C@H](O)[C@@H]3O)[C@@H](O)[C@H]2O)C=CC1
[3] = substrate: NC(=O)c1ccc[n+]([C@@H]2O[C@H](COP(=O)([O-])O)[C@@H](O)[C@H]2O)c1
[4] = substrate: Nc1ncnc2c1ncn2[C@@H]1O[C@H](COP(=O)(O)O)[C@@H](O)[C@H]1O

B1: UshA (Escherichia coli K-12) (protein)
chain: YEQDKTYKITVLHTNDHHGHFWRNEYGEYGLAAQKTLVDGIRKEVAAEGGSVLLLSGGDINTGVPESDLQDAEPDFRGMNLVGYDAMAIGNHEFDNPLTVLRQQEKWAKFPLLSANIYQKSTGERLFKPWALFKRQDLKIAVIGLTTDDTAKIGNPEYFTDIEFRKPADEAKLVIQELQQTEKPDIIIAATHMGHYDNGEHGSNAPGDVEMARALPAGSLAMIVGGHSQDPVCMAAENKKQVDYVPGTPCKPDQQNGIWIVQAHEWGKYVGRADFEFRNGEMKMVNYQLIPVNLKKKVTWEDGKSERVLYTPEIAENQQMISLLSPFQNKGKAQLEVKIGETNGRLEGDRDKVRFVQTNMGRLILAAQMDRTGADFAVMSGGGIRDSIEAGDISYKNVLKVQPFGNVVVYADMTGKEVIDYLTAVAQMKPDSGAYPQFANVSFVAKDGKLNDLKIKGEPVDPAKTYRMATLNFNATGGDGYPRLDNKPGYVNTGFIDAEVLKAYIQKSSPLDVSVYEPKGEVSWQ
- Km [1]: 5.3 ± 0.6 µM
- kcat [1]: 19.3 ± 0.9 s⁻¹
- Km [2]: 7.0 ± 0.8 µM
- kcat [2]: 10.0 ± 0.2 s⁻¹
- Km [3]: 11.1 ± 1.3 µM
- kcat [3]: 1492 ± 31 s⁻¹
- Km [4]: 1.2 ± 0.1 µM
- kcat [4]: 405 ± 4 s⁻¹
